Here are results for 15 sequences from the supplement of paper PMC9170038.

For the data set, the system named is MS2 coat protein. The data set can be described thus: apparent KD of MS2 coat protein; higher = weaker reporter binding. The settings on record: Eterna round: R107. The essentials:
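Illumina sequencing clusters served as templates for on-chip transcription of the designed RNA switches. SNAP-549-labelled MS2 coat protein was then titrated in twofold steps from 0.7 or 1.5 nM to 3 µM, allowing 0.8–1.5 h per step at first and 10–20 min per step later. The buffer held 100 mM Tris-HCl pH 7.5, 80 mM KCl and 4 mM MgCl2, without or with constant ligand. Apparent KD is the median per design of normalised cluster binding-curve fits.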

[1] abbreviates: input ligand: theophylline 20 uM.
[2] abbreviates: input ligand: theophylline 2 mM.
Setting [3] is: input ligand: tryptophan 2.4 mM.

Regarding “AGUAAUAAUAUAAAUAAUAUUAGGUCAUGGCGAGGACCGGUACGGCCGCCACUCGGUUACAUGAGGAUCACCCAUGUCCCGCUUA [Exclusion - Tryptophan A]”, the “apparent KD of MS2 coat protein” value reads like this: (input ligand: arginine 13.2 mM) 26.6 nM; under setting [1], 35 nM; under setting [2], 31.2 nM.
For “CUUGUUUGUGGAAGGAGCGCGAUUACAUAACAUGAGGAUCACCCAUGUAAGAAAUUAUUCAUGCAGGUAGGUCGCCAUUGGUGGG [Same State Arginine B GF8]”, the “apparent KD of MS2 coat protein” value runs as follows: (input ligand: arginine 13.2 mM) 64.1 nM; (input ligand: none) 62.2 nM; under setting [1], 53.1 nM; under setting [2], 23.7 nM; under setting [3], 30.6 nM.
Regarding “GGGUACAUCGCGGCCGCCACUCAUGUAAAUGCAUGAGGAACACCCAUGCCGAUGGAGACAUCGGAGAGGACCGGGUGAUGUACCG”, the “apparent KD of MS2 coat protein” value (input ligand: arginine 13.2 mM) was determined as 66 nM; the “apparent KD of MS2 coat protein” value (input ligand: none) was found to be 110 nM; the “apparent KD of MS2 coat protein” value under setting [1] stood at 157 nM; the “apparent KD of MS2 coat protein” value under setting [2] was 148 nM; the “apparent KD of MS2 coat protein” value under setting [3] stood at 93.7 nM.
On to “CAAGAACAGCCAGAUCUUGGCAGCUGAGAAGGAGCGCGGGAAGCCGCAGGUAGGUCGCUCAGGAAUACAUGAGGAUCACCCAUGU [Beoror]”, for which the “apparent KD of MS2 coat protein” value came out at 19.8 nM (input ligand: arginine 13.2 mM); 17.6 nM (input ligand: none); 24.6 nM under setting [1]; 20 nM under setting [2]; 17.2 nM under setting [3].
As for “UGUAUGUGAUCUGAUACCAGUCCAACUGGUAAAACCUGAGGAACACCCAGGUAAAAUUGGGACCCUUGGCAGCAGAUCGCAUACU”, the “apparent KD of MS2 coat protein” value is 99.5 nM (input ligand: arginine 13.2 mM); 246 nM (input ligand: none); 147 nM under setting [1]; 23 nM under setting [2]; 264 nM under setting [3].
Regarding “ACAUGAGGGCGAAGGAGCGCGUACAUGAGGAUCACCCAUGUCUAUAUCCGUCCGCGUGUAACGCAGGUAGGUCGCGCUGUUAAUU [#14 Exclusion - Arginine B]”, the “apparent KD of MS2 coat protein” value (input ligand: arginine 13.2 mM) is 15.4 nM; the “apparent KD of MS2 coat protein” value (input ligand: none) was found to be 16 nM; the “apparent KD of MS2 coat protein” value under setting [1] amounted to 21.6 nM; the “apparent KD of MS2 coat protein” value under setting [2] was 20 nM; the “apparent KD of MS2 coat protein” value under setting [3] turned out to be 16.2 nM.
On the same counts, the results for “UAAAGUAGGUCCAAUAAAACUACAUGUGAAGGAGCGCGCGAAAGCGCAGGUAGGUCGCACAUGAGGAUCACCCAUGUCCUACAAU [MAT - Exclusion Arginine A - Mod of Eli - D17]” are 42.6 nM, 51.5 nM, 69.1 nM, 68.2 nM and 43 nM.
As to “AUAAUAAGGUGAUCCUAAGUCGUACCGUAACGAGGACCGGUACGGCCGCCACUCGAACAUGAGGAUCACCCAUGUAUGUACGACA [M'-T'-T-MS2-T'' - Design 6]”, the “apparent KD of MS2 coat protein” value reads like this: (input ligand: arginine 13.2 mM) 28.1 nM; (input ligand: none) 56.1 nM; under setting [1], 96.1 nM; under setting [2], 170 nM; under setting [3], 75.9 nM.
Regarding “AACAUGAGGAUCACCCAUGUAUUGGGUGAUACCAGCCUGAAUAAUGGCCCUUGGCAGCACCACGCUAACUUUAUGUCUGCGAACC [Maus]”, the “apparent KD of MS2 coat protein” value turned out to be 39.3 nM (input ligand: arginine 13.2 mM), 263 nM under setting [1] and 83.6 nM under setting [3].
Consider “CCAUGGCUAGGAAGGAGCGCAUACUUCACAUGAGGAUCACCCAUGUCGAGACGUGAGUCAGUGCAGGUAGGUCGCCUAGCCAUGG [Same State - Arginine B (Freestyle 30)]”, for which the “apparent KD of MS2 coat protein” value runs as follows: (input ligand: arginine 13.2 mM) 19.8 nM; (input ligand: none) 16.7 nM; under setting [1], 29.2 nM; under setting [2], 24.8 nM; under setting [3], 18.6 nM.
For the sequence “GGCUACAUGAGGAUCACCCAUGUUUCUCGUCGAGGACCGGUACGGCCGCCACUCGUUGUUGGGACUCAGUAUCAGUCGUUAGUUU [theeternabot_sameState_MS2_Trp_A_36]”, the “apparent KD of MS2 coat protein” value runs as follows: (input ligand: arginine 13.2 mM) 23.8 nM; under setting [1], 34.3 nM; under setting [2], 40.2 nM.
Take “AACAUGAGGAUCACCCAUGUGUCCUCGAAACGAGGACCGGUACGGCCGCCACUCGAAAUAAGCUGUUGACGAAAAGUCAGCAGCA [Mat - Exclusion - Trytophan A - D20]”: the “apparent KD of MS2 coat protein” value by setting is: (input ligand: arginine 13.2 mM) 128 nM; under setting [1], 300 nM; under setting [2], 345 nM.
On to “AGACAUGAGGAUCACCCAUGUAGUACGGAUACCAGAUCCAGAUGUAUCCCUUGGCAGCUGUGGUACAGCGUUGCAACGCUCCUAG [Exclusion - Theophylline A (Freestyle 18)]”, for which the “apparent KD of MS2 coat protein” value was determined as 15 nM (input ligand: arginine 13.2 mM), 23.9 nM under setting [1] and 15.2 nM under setting [3].
As for “UUCAAAGGGAACGGUGCUGGUGACAGAGAUACCAGAGUAGUAAUACUCCCUUGGCAGCUCAGAACAUGAGGAUCACCCAUGUAAU [Exclusion Theophylline A GF22]”, the “apparent KD of MS2 coat protein” value by setting is: (input ligand: arginine 13.2 mM) 18.5 nM; (input ligand: none) 18 nM; under setting [1], 29.1 nM; under setting [2], 59.2 nM; under setting [3], 17.6 nM.
As to “UUUUAACAUGAGGAUCACCCAUGUAAUGAUACCAGAGACGAAAGUCUCCCUUGGCAGCAUAUAUCAUUACUCAUAGGAAACUAUG [Theophylline A 6]”, the “apparent KD of MS2 coat protein” value by setting is: (input ligand: arginine 13.2 mM) 35.4 nM; under setting [1], 23.5 nM; under setting [3], 13.6 nM.
